# Data published in the supplement of paper PMC12042874.
# ± gives the uncertainty stated by the source.
# Experiment: amyloid nucleation score (Sup35N fusion, yeast selection) (log enrichment); library NNK1; higher = more nucleation; inactive = no reads after selection
# Method in brief: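 The nucleation score is a DiMSum log enrichment of output over input reads, centred on the mode score of non-aggregating sequences. Sequences under 100 input reads were excluded, and reads came from Illumina sequencing of plasmid inserts. Psi-negative yeast expressing Sup35N fused to peptides of 20 random codons were induced with 100 μM copper sulfate for 24 hours and grown 7 days at 30°C on medium lacking adenine and uracil. Random libraries had three technical output replicates.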
row,Substance,amyloid nucleation score
1,HCRKYTKTSR,-0.327 ± 0.47
2,ILKALF,1.53 ± 0.8
3,EYSIIYCICH,3.08 ± 0.14
4,NHGWVLNSNFYIPRKYSLVR,-1.25 ± 0.48
5,SVISNVCSKCTVTRRDGP,3.17 ± 0.11
6,YKNTCQLYPRVFTPWWYERM,0.173 ± 0.67
7,SFRYFKLSCYFFFLVFAVFF,-1.02 ± 2.4
8,TVFWRYCSRVLNDKFGQFWV,0.043 ± 0.35
9,KGISVTCEGK,1.24 ± 0.79
10,FSALPTLASGLGFGR,0.604 ± 0.73
11,ITPDVGSGTFEV,0.022 ± 1.1
12,FMATNTKAMGPLRSAK,0.224 ± 0.58
13,VQEFYDLKEYWS,-0.265 ± 0.35
14,MGTLDI,inactive
15,LDLINRMGNVGMLIMDCYKI,0.159 ± 0.43
16,HYRFCYCHSTKS,1.76 ± 0.42
17,HHALHAKAERLTPPMPPCKM,0.714 ± 0.84
18,GNVFRLWLNM,0.369 ± 0.38
19,CYRLWHGCKMGIPVQYLYGS,-0.113 ± 0.36
20,EDWHVDSFGFSKTSMGTRRL,2.49 ± 0.14
21,GGFFICQGDTRVV,0.222 ± 0.58
22,GVALFVIGLNSQIVANSYTS,6.285 ± 0.055
23,IQSIIW,-0.418 ± 0.5
24,KRVIAMLTLIFG,0.534 ± 0.64
25,ENMGELCA,inactive
26,IPVVVV,0.014 ± 0.24

row,Substance,amyloid nucleation score
1,EQNCVGVCSELNVFYGACVI,2.12 ± 0.48
2,SPTIVIKHRLNLESKRGYKV,-0.216 ± 0.44
3,TSSVEVNPERVITISGTVS,-0.018 ± 0.17
4,DFWMSRKYLNVSMQ,3.98 ± 0.1
5,VAGWRPFILLGGPRLNTVRQ,0.407 ± 0.67
6,FTRWLSFKTYG,-0.283 ± 0.66
7,VPSFITYLVVDLWDALQGYH,0.409 ± 0.42
8,YTYTQTFLV,-0.255 ± 0.47
9,ANLCSCSTTMA,0.236 ± 0.39
10,FCSDFKSEYSIWDYWVWHKV,-0.306 ± 0.37
11,DRMPRFLVHENVYTVPERVW,inactive
12,RLHSKRAHTRS,inactive
13,LFGVFGFISVVSFSP,-0.455 ± 1.7
14,MRVLDTNSGLMTITPFPVHS,-0.574 ± 0.67
15,DPICYKRNKANVYLGRFGYR,0.7 ± 0.66
16,LCKDLAKHHN,4.97 ± 0.056
17,QRVVKVWWDTKPYVSMGSFL,0.563 ± 0.44
18,IWLLGSVHRLDSLVTDCKTS,1.08 ± 0.63
19,IFSSGYAKAFVHLVCSVAQL,-0.458 ± 0.45
20,MGVDYARSVW,-0.202 ± 0.76
21,FDRSWRGFAGPRQRTGLVVF,-0.178 ± 0.51
22,VTGHV,-0.019 ± 0.49
23,LLESFTG,-0.392 ± 0.46
24,WNQADGIS,-1.66 ± 2.4
25,ARGYAGVRRLVGYR,0.133 ± 0.56
26,LQLYQVFSVHYEC,3.08 ± 0.11

row,Substance,amyloid nucleation score
1,MRCKCGLYAHSYSALLGNVE,inactive
2,RTMCRFPYGCMTRSYVSG,0.159 ± 0.38
3,SIRLVLRFLTA,-0.166 ± 0.46
4,GSYGERIGEDVVNFARSYNG,0.267 ± 0.38
5,VVSYSHAIVRLVLSCDMGRC,0.441 ± 0.47
6,YTDFRQSLLTVT,0.07 ± 0.43
7,MFSTLH,0.178 ± 0.36
8,RRHPS,inactive
9,LRNVYLSGKFVYRGELNCET,0.95 ± 0.31
10,WMRKVIPTNGTVDIETSS,0.438 ± 0.33
11,ANNNEYRFWTTSYW,0.041 ± 1.4
12,GNWTGGYCVCGRQSSLIVVE,-0.016 ± 1.7
13,RYMVGSENEIRL,0.583 ± 0.29
14,LCSFKFSVRPLCKKRFKVRV,0.099 ± 0.34
15,CLAGLYNCGGR,0.679 ± 0.65
16,DTECRGMKVELHRTHRMGKF,-0.179 ± 0.62
17,GRSLSFLLIGKYWQYTTQAR,inactive
18,LGIYNGEASRWYRESTPAQ,-0.443 ± 0.92
19,GGHHVSPVCLEWNNLRWDI,0.897 ± 0.78
20,INVNRG,0.239 ± 0.56
21,ITVRPLPYRPIDVHRYFAQH,0.77 ± 0.34
22,NVMIAIPYVGVDKRGMVSGM,5.22 ± 0.1
23,LNGIFNNPY,-0.512 ± 0.78
24,HWFESDFAI,inactive
25,IRMFSTLLACNLVIGGCLAN,6.482 ± 0.053
26,EDFLYMCFRLSFVIIH,3.42 ± 0.12

row,Substance,amyloid nucleation score
1,SYTYCLVVG,0.157 ± 1.4
2,LSGFKMFIGNYITVV,-0.779 ± 0.78
3,LVSMSYSVREDDFISLLWGV,inactive
4,DSVYRLFICIVISALTGWWK,0.258 ± 0.62
5,LTVMMLGFGHVQCMS,-0.003 ± 0.26
6,YIFENLARAPMLQ,0.259 ± 0.74
7,MGGRGGTDCRASMYSSACMG,1.74 ± 0.26
8,RGPLVFYLFTFWLCDRGNVL,0.046 ± 0.58
9,YSLTYVNSYLFGINDCKGPD,8.164 ± 0.054
10,NLSGDDFGVNEKTSRWCQWG,0.397 ± 1.2
11,SLMIDRTRLGGN,0.769 ± 0.17
12,VVVSNTLECSTSRVNRKVRT,-0.97 ± 0.72
13,LRKGTVRLSSFEKWYMVRTG,-0.701 ± 0.7
14,YNRLKSIV,1.51 ± 0.72
15,SPHAIGRYLSFCRFCGTAAR,-0.026 ± 0.35
16,FLRTD,0.171 ± 1.2
17,YFLLACLNVS,0.828 ± 0.26
18,TCISTCYD,-0.183 ± 0.9
19,IILSAHVLSRTFLAFVSQKE,0.146 ± 0.77
20,IFPPFMDFRNCPVMLNC,0.761 ± 0.2
21,HRITSFVYYFGLSSEFYIYP,0.009 ± 1.1
22,YSVVRCRVANC,0.263 ± 0.61
23,VQNGGSLTMPRALLANTWMS,-0.671 ± 0.42
24,DIRDYGLWWDKWAEGC,0.459 ± 0.3
25,RANQHRGYIFSILVTFCYST,-0.505 ± 0.51
26,FLVYGSSGFTAVLGPQCEEG,-0.777 ± 1.4

row,Substance,amyloid nucleation score
1,FLQCNRNSVGRLVAHLCCAR,inactive
2,YYFRHMLKDNHLVIV,inactive
3,ICQYPPLEVLARYGQIQDIM,0.207 ± 0.3
4,YAAGGIRKSVGSTVRSPWGA,0.903 ± 0.84
5,WIMRS,inactive
6,VPIFVNKFVDYTSLSCMHCL,7.379 ± 0.06
7,RLDIDFNGLRMFLNVFLMVV,-0.188 ± 0.2
8,YKAERVKSVRTITPRVTLLW,-0.331 ± 0.61
9,KGLGGFLSICNSVVVRQVWR,0.098 ± 0.72
10,HVLDRQLSPMDSNSYGCVAT,0.208 ± 0.28
11,NPFCFMMRTGRSGSGWVKRR,0.088 ± 0.54
12,RVTYNSETTRCFCEVFAPYR,-0.875 ± 2.4
13,IWCFLI,0.333 ± 0.55
14,IWNVTPRGFDSAD,-0.345 ± 0.97
15,KIGRGRSNAVLLLAEDVYVG,-0.57 ± 1.2
16,RDHCARYHARDGTEPYSGHR,inactive
17,YAGVRLWRRVWRAKTACSVA,0.169 ± 0.56
18,YLNTLRR,inactive
19,FRVMILLLTEMWSMESNRDL,3.4 ± 0.14
20,TASICSYR,-0.289 ± 0.49
21,RLVCKFRMRKSNRGVRNMLC,0.797 ± 0.53
22,QSTVTCRFMCVVWGSNW,-0.078 ± 0.47
23,PSQHSIPLLTQVYVLL,5.54 ± 0.059
24,TSRFSFCGS,1.85 ± 0.14
25,VRSFDDLRVNVSRSRCAMAQ,-0.906 ± 0.71
26,GLRQYF,-0.317 ± 0.84
